From the nanobody polyreactivity screen of Harvey et al. (2022)

Assay: yeast display, Sf9 membrane polyspecificity reagent, FACS + sequencing; frameworks hold sequencing errors
Method in brief: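 Galactose induction of a Saccharomyces cerevisiae BJ5465 synthetic nanobody display library ran 36–48 hours. The cells were then stained for 1 hour at 4 °C with 10% biotinylated, detergent-solubilized Sf9 membrane reagent, pulled down on streptavidin microbeads and FACS-sorted into low and high (top ~1%) gates on expression and reagent-binding fluorescence. Labels for polyreactivity follow the gate of origin.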

Sequence	polyreactivity (PSR sort gate)
QVQLVESGGGLVQAGGSLRLSCAASGRIFANAMGWYRQAPGKERELVAAISTSGGRTYYADSVKGRFTISRDNAKNTVYLQMNSLKPEDTAVYYCAARPHTPPVTSGYNHWGQGTQVTVSS	high polyreactivity
QVQHVESGGGLVQAGGSLRLICAASGSTFGNYAMGWYRQAPGKERELVAAISTSGGSTYYADSVKGRFTISRDNAKNTVYLQMNSLKPEDTAVYYCANRLVRGRSRAVSDYYWGQGTQVTVSS	high polyreactivity
QVQLVESGGGLVQAGGSLRLSCAASGSTFEYYAMGWYRQAPGKERELLATISIDGRTNYADSVKGRFTISRDNAKNTVYLQLYSVKPEDTAVYYCGARPYWRHRYDYWGQGTQVTVSS	low polyreactivity
QVQLVESGGGLVQAGGSHRLSCAASGSIFSYYAMGWYRPAPGKERELVAAISWGDDSTYYAASVKGRFTISRDNEKNTVYLHMNSLKPEDTAVYYCAADRVGWYRTFDYWGQGSQVTVSS	low polyreactivity
QVQLVESGGGLVQAGGSLRLSCAASGLTFRSYTMGWYRQAPGKERELVAAISSGGSTYYADSVKGRFTISRDNAKNTVYLQMNSLKPEDTAVYYCAAPRGHGKYYSWGQGTQVTVSS	high polyreactivity
QVQLVESGGGLVQAGGSLRLSCAASGSTFDSYAMGWYRQAPGKEREFVAAISSCAGSSGRTSYADSVKGRFTISRDNATNTVYLQMNSLKPEDTAVYYCAKEYTLAKYREYDYWGQGTQVTVSS	low polyreactivity
QVQLEETGGGLVQAGGSLRLSCAASGIILGKNAMGWYRQAPGKERELVASITSGAGITYYADSVKGRFTISRDNAKNTVYLQMNSLKPEDTAVYYCAADWSGDFFTDGYWGQGTQVTVSS	low polyreactivity
QVQLVESGGGLVQAGGSLRISCAASGRTFYDNTMGWYRQAPGKERELVAAINWSGTRTYYADSVKARFTISRDNAKNTVYLQMNSLKPEDTAVYYCAADGPFRRTYGYWGLGTQVTVSS	low polyreactivity
QVQLVESGGGLVQAGGSLRLNCAASGSTFNRNAMGWYRQAPGKERELVATISSGGSTNYADSVKGRFTITRDNAKNTVYLLMISLYPEDTWVYYCAKRSLYRYYYWGQGSQVTVSS	high polyreactivity
QVQPQESGGGQVQAGSCLRLSCTASGYIFLYAYMGRYRQAPGKEREFVATITDGTSTYYADSVKGRFTISRNNAKNIVYLQMNSLKPEDTAVYYCAADAGGGYPGDEDWGQGTQVTVSS	low polyreactivity
QVQLVESGGGLVQAGGSLRLSCAASGLIFYDNMGWYRQAPGKERELVAAISSSGGSTSYAYSVKGRFSISRDNAKYTVYLQMISLKREDTAVYYCAADSYRAYLGFVGFDYWGQGTQVTVSS	low polyreactivity
QVQLVESGGGLVQAGGSLRLSCAASGIIFGGYAMGWYRQAPGKERELVADISGISSNTYYADSVKGRFTISRDNAKNTVYLQMNSLKPEDTAVYYCAADLTAWWAPVIFYYWGQGTQVTVSS	high polyreactivity
QVQLVESGGGCSGGRSLRLSCAASGLIFDDNAMGWYRQAPGKERELVAAITWSTSSTYYADSVKGRFTISRDNAKNNVYLQMNSLKREDTAVYYCNKRYKFRYYYWGQGTQVTVSS	low polyreactivity
QVHLEESGGRLVQEGGSLRISCAASGSILRSYAMGWYRQAPGKERELVAVINRGTSTNYADSVKGRFTISRDNAKNTVYLQMNSVKPEDTAVYYCAVAVLPWQLDSESYAEYDYWGEGTQVTVSS	low polyreactivity
QVQLVESGGRLVQAGGSLRLSCAPSGFIFRFNAMGWYRQPPGKVSELVARIDWSGGSTYYADSVKGRFTISRENAKYTVYFQMNSLKPEDTAVYYCAAERYFEYSECDYWGQGTQVTVSS	low polyreactivity
QVQLVESGGGLVQAGGSLRLSCAASGFTFANYAMGWYRQAPGKERELVAAITRTAGSTYYADSVKGRFTISRDNAKNTVYLQMNSLKPEDTAVYYCAVEGIYRWYDYSWYYTSTYDYWGQGTQVTVSS	low polyreactivity

Sequence	polyreactivity (PSR sort gate)
QVQLVESGGGLVQAGGSLRLSCAASGSIFGRNTMGWYRPAPGKERELVAAISSGGRTYYADSVKGRFTISRDNAKITVYLQINSLKPEDTAVYYCAAALRRRRADFDYWGQGTQVTVSS	high polyreactivity
QVQLVESGGGLVQAGGSLRLSCAASGITFGWYAMGWYRQAPGKERELVAAISGRGGRTYYADSVKGRFTISRDNAKYTVYLQMNSLKPEVTAVYYCAARARRWSYITGSYVLIEYEYWGQGTQVTVSS	high polyreactivity
QVQHVESGGGLVQAGRSLRLSCAASGFTIVQYAMGWYRQAPGKERELVARISPIGGSTYYADSVKGRFTISRDNAKNTVYLQMNSLKPEDTAVYYCNALRGPVKYYYWGQGTQVTVSS	low polyreactivity
QVQLVESGGGLVQAGGSLRLSCAASGRIFTIYTMGWYRQAPGKERELVAAISVNGGRTYYADSVKGRFTISRDNAKNTVYLQMNSLKPEDTAVYYCAARRRFGYHQQRYDYWGQGTQVTVSS	high polyreactivity
QVQLVESGGGLVQAGGSLRLSCAASGRTFSVYAMGWYRQAPGKERELVAAIRTSGGITYYADSVKGRFTISRDNAKNTVYLQMNSLKPEDTAVYYCAAETFRHYSYTRYYYWGQGTQVTVSS	high polyreactivity
QVQLVESCGGLVQAGGSLRLSCAASGSTLATYAMGWYRQAPWKERELDAVITRGGRTYYADSVKGRFTISRDNAKNTVYLQMNSLKPEDTAVFYCNATRAGENPDGGDEYWGQGTQVTVSS	high polyreactivity
QVQLVESGGGLVQAGGSLSLSCAASGSISYRYAMGWYRQAPGKERELVAAITSGGRTYYADSVKGRFTISRDNAKYTVYLQMNSLKPEDTAVYYCAKSKPVGPYYYWGQGTQVTVSS	high polyreactivity
QVQLVESGGGLVQAGGSLRLSCAASGFTFPSYAMAWYRQDPGKEREFVAGITKGGGNTYYADAVKGRFTISRDNAKNTVYLQKNSLKQEDTAVYYCSADRSSFYWSHGTVYGYDYWGQGTQVTVSS	low polyreactivity
QVQLVESGGGLLQAGGSLRLSFAASGRIYWNTMGWYRQAPGKERELVASISTGGGRTYYADSVKGRFTISRDNAKNTVYLQMNSLKPEDTAVYYCNADFISTRPPKATDEDYWGQGTQVTVSS	high polyreactivity
QVQLVESGGGLVQAGGSLRLSCAASGIIFPYNAMGWYRQAPGKERELVAAITGGGSTYYADSVKGRFTISRDNAKNTVYLQMNSLKPEDTAVYYCAADRSGPGYDYWGQGTQVTVSS	low polyreactivity
QVQLLESGAGLLQAGGSLRLSCAASGRTFLKYAMGWYRQAPGKERELVAAISRGDSTYYADSVKGRFTISRDNAKNTVYLQMNSLKTEDTAVYFCAKPGYYVRYGYWGQGTQVTVSS	high polyreactivity
QVQLVESGGGLVQAGGSLRLSCAASGRIFRNYAMGWYRQAPGKERELVAAISTRSGSTYYADSVKGRFTISRDNAKNTVYLQMNSLKPEDTAVYYCNKVSVGRYYALYYWGQGTKVTVSS	high polyreactivity
QVQLVESGGGLVQAGGSLRLSCAASGSTFYNNAMGWYRQAPGKEREFVAAITLSGGRTYYADSVKGRFTISRDNAMNTVYLQMNSLKPEDTAVYYCAAKGTRRGKERNYWGQGTQVTVSS	high polyreactivity
QVQLVESGGGLVQAGGSLRLSCAASGRTFWNAMGWYRQAPGKERELVATITSGGITNYADSVKGRFTISRDNAKNTVYLQMNSLKPEDTAVYYCAARPYSWRNYRPSDYWGQGTQVTVSS	high polyreactivity
QVQLVESAGGLVQAGGSLRLSCAASGRIFPYNVIGWYRQAPGKERELVAAISSGGTTDYADSVKGRFTISRDNAKNTVYLQMNSLKPEDTAVYYCAATYVYWTWGYDYWGQGTQVTVSS	low polyreactivity
QVQLVESGGVLVQAGGSLRLSCAASGSIFRGYAMGCYRQAPGKERELVAAINTSGGRTYYADSVKGRFTISRDNAKNTVYLQMIRLKPDDTAVYYCATEYYQAKREDYWGQGTQVTVSS	high polyreactivity
